Assay results as given in patent US20160289342A1.

Key:
[1] = target: human CD20 (human) (UniProt P11836); experiment: flow cytometry on JY cells, simultaneous binding assay, 0.32 ng biotinylated BAFF, CD20 channel FL-1
[2] = target: recombinant human soluble BAFF (human) (UniProt Q9Y275); experiment: flow cytometry on JY cells, simultaneous binding assay, 1000 ng biotinylated BAFF, BAFF channel FL-2 (PE)
[3] = target: human CD20 (human) (UniProt P11836); experiment: flow cytometry on JY cells, simultaneous binding assay, 1000 ng biotinylated BAFF, CD20 channel FL-1
[4] = target: human CD20 (human) (UniProt P11836); experiment: flow cytometry on JY cells, simultaneous binding assay, 200 ng biotinylated BAFF, CD20 channel FL-1
[5] = target: recombinant human soluble BAFF (human) (UniProt Q9Y275); experiment: flow cytometry on JY cells, simultaneous binding assay, 200 ng biotinylated BAFF, BAFF channel FL-2 (PE)
[6] = target: recombinant human soluble BAFF (human) (UniProt Q9Y275); experiment: flow cytometry on JY cells, simultaneous binding assay, 5000 ng biotinylated BAFF, BAFF channel FL-2 (PE)
[7] = target: recombinant human soluble BAFF (human) (UniProt Q9Y275); experiment: flow cytometry on JY cells, simultaneous binding assay, 0.32 ng biotinylated BAFF, BAFF channel FL-2 (PE)
[8] = target: human CD20 (human) (UniProt P11836); experiment: flow cytometry on JY cells, simultaneous binding assay, 5000 ng biotinylated BAFF, CD20 channel FL-1

Sequence of human CD20 (human) (P11836 whole entry): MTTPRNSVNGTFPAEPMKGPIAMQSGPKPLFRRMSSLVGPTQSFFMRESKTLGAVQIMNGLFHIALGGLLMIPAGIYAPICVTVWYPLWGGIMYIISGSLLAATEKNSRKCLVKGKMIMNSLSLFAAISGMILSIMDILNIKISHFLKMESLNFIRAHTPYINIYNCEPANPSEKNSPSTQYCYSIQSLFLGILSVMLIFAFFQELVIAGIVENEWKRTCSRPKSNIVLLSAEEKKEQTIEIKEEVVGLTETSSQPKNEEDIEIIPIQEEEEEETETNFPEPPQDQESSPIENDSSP

- MFI [1]: 9.8 MFI
- MFI [2]: 1.3 MFI
- MFI [3]: 9.14 MFI
- MFI [4]: 18 MFI
- MFI [5]: 1.43 MFI
- MFI [6]: 1.26 MFI
- MFI [7]: 1.31 MFI
- MFI [8]: 8.5 MFI
Substance: control human IgG1 antibody
